Reference: paper PMC2823288 (Nature structural & molecular biology, 2009)

Biological target: Full-length human DDB1 (human, UniProt Q16531 1-1140)
Assay: crystal structure

Full-length human DDB1, sequence (Q16531 whole entry): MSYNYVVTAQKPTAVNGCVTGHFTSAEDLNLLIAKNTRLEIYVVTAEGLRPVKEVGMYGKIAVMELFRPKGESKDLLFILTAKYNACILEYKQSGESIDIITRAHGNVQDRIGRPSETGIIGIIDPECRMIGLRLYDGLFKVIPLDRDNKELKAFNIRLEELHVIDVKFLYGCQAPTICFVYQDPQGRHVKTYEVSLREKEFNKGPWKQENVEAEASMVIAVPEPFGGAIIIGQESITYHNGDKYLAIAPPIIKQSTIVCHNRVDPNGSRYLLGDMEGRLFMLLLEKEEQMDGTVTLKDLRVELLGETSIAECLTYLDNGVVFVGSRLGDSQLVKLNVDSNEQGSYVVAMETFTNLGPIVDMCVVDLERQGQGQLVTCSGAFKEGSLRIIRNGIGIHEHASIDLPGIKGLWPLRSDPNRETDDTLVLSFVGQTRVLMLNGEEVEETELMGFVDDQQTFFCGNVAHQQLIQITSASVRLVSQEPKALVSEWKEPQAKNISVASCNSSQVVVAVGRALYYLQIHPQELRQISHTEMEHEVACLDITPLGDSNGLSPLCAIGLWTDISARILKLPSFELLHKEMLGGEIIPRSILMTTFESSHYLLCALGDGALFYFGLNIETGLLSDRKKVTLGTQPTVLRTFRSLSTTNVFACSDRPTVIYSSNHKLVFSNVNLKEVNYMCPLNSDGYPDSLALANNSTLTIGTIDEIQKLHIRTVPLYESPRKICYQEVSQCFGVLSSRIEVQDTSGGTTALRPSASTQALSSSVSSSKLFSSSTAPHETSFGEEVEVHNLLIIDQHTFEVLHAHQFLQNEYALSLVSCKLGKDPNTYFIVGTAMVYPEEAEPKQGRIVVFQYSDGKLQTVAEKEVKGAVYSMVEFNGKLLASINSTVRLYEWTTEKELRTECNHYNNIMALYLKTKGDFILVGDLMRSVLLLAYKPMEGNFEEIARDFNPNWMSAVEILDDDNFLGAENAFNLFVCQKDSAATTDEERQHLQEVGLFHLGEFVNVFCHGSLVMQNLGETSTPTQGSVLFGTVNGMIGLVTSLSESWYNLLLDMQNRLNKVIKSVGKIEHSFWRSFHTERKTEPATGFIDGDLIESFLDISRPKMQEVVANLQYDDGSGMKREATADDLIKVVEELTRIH

binding result: binds
Binder: NITRDLIRRQIKE (peptide, UniProt Q8N5D0 5-17, looked up) [DCAF9 peptide (amino acids 5 to 17 of DCAF9/WDTC1)]
